Results taken from PMC6904456.

Key:
Thrombin (THR) [1] = target: T1, Thrombin (THR) (UniProt P00734;P00734 328-363;364-622); test: SPR (D-shaped plastic optical fibre); 1-50 nM thrombin, no shift of resonance wavelength; Immobilization in 10 mM phosphate, 138 mM NaCl, 2.7 mM KCl, pH 7.4; sensing in binding buffer (composition and temperature not given in material)
Thrombin (THR) [2] = target: T1, Thrombin (THR); test: SPR (D-shaped plastic optical fibre, Langmuir fit); 10 uM aptamer for immobilization; Langmuir K, printed as K [nM]; Immobilization in 10 mM phosphate, 138 mM NaCl, 2.7 mM KCl, pH 7.4; sensing in binding buffer (composition and temperature not given in material)

Row | Binder | binding result (Thrombin (THR) [1]) | Kd (Thrombin (THR) [2]) [nM]
1 | CACCAATATTTACGTTCTACTCTCCAATA (ssDNA, 5' BiotinTEG) [non specific aptamer sequence] | no binding | 
2 | AGTCCGTGGTAGGGCAGGTTGGGGTGACT (ssDNA, 5' BiotinTEG) [TBA29 (biotin-TBA29 thrombin aptamer)] |  | 21.8
